Experiment [1] concerns the target T1, Molm-13 N1 tumor cells (carrying CD123, CD33 and CD70) (human, UniProt P20138 18-364; P26951 19-378; P32970 1-193).
T1 construct: whole, on cells; Not a complex: three separate antigens on one cell; also called Molm-13 N1 cells
In words: flow cytometry on Molm-13 N1 cells, 20 uM HSA. How it is done: The determination of binding of several multispecific proteins to tumor cells was performed by Fluorescence Activated Cell Sorting (FACS) flow cytometry. Therefore, tumor cells (Molm-13 N1), were seeded at 100′000 cells per well in a 96 well plate. DARPin® protein #56, DARPin® protein #57, DARPin® protein #58, DARPin® protein #59, DARPin® protein #60, DARPin® protein #61 and DARPin® protein #62 were titrated down starting at 100 nM in 1:5 dilution ratio. Tumor cells were resuspended with diluted DARPin® proteins and incubated 60 minutes at 4° C. The assay was performed in PBS including 2% fetal bovine serum and human serum albumin 20 uM (HSA). After washing twice with Phosphate Buffer saline (PBS), DARPin® protein specific tumor cell binding was detected by adding unlabelled primary […] (anti-rabbit 1-1-1 antibody, CePower) at 2 ug/ml. An incubation step of at least 30 minutes at 4° C. followed. Afterwards, cells were washed with PBS and a secondary anti-rabbit antibody labelled with Alexa Fluor 647 antibody (ThermoFisher) at 2 ug/ml was added. The same incubation conditions applied. Finally, the cells were washed twice and resuspended in Cytofix fixation buffer (BD Biosciences) for 15 min at room temperature (RT). Median fluorescence intensities (MFI) of Alexa Fluor 647 DARPin® labelled cells were measured by Attune NxT (Thermo Fisher) using FlowJo software for analyses and GraphPad Prism 8 for data plotting.

For experiment [2], the target named is T2, extracellular domain of human CD70 (SEQ ID NO: 89), hCD70-Fc-trimer, ACRO Biosystems (human, UniProt P32970 52-193, chemically biotinylated where the biotinylated form was used).
T2 construct: also called human CD70-Fc-trimer; Bio.CD70
T2 sequence: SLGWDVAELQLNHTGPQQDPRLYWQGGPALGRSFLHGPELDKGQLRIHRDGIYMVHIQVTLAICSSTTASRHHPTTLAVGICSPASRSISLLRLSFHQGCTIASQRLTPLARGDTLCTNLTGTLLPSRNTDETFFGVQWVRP
Briefly: SPR (ProteOn), hCD70-Fc-trimer captured on protein A/G chip. How it is done:
Briefly, human target CD70 (SEQ ID NO: 89; hCD70-Fc-trimer, ACRO Biosystems) was diluted in PBST (PBS, pH 7.4 containing 0.005% Tween 20®) and captured on a PAGD200L protein A/G sensorchip (XanTec bioanalytics GmbH) to a level of around 36 resonance units (RU) using a ProteOn (BioRad). The interaction of each tested ankyrin repeat protein and human CD70-Fc-trimer was then measured by injecting 400 μl running buffer (PBS, pH 7.4 containing 0.005% Tween 20®) containing three-fold serial dilutions of ankyrin repeat proteins covering a concentration range between 600 nM and 7.4 nM, followed by a running buffer flow for 2700 seconds at a constant flow rate of 100 μl/min (off-rate measurement). The regeneration was performed using 30 μl of 10 mM glycine pH 2 and hCD70-Fc-trimer was reinjected to prepare the surface for the next measurement. Each interaction was recorded in triplicates. The signals (i.e. resonance unit (RU) values) of the interspots and a reference injection (i.e. injection of running buffer only) were subtracted from the RU traces obtained injecting the ankyrin repeat protein (double-referencing). Dissociation constants (KD) were calculated from the globally fitted on- and off-rates using standard 1:1-Langmuir model.

The target in experiment [3] is T3, biotinylated extracellular domain of human CD33 (SEQ ID NO: 87), Fc and Avi tagged (human, UniProt P20138 18-259, biotinylated with BirA-GST (Avi tag)).
T3 construct: also called hCD33; human target hCD33
Briefly: SPR (ProteOn), DARPin immobilized, hCD33 as analyte. Here is the method: For measuring the interaction with human CD33, DARPin® protein #56 and DARPin® protein #57 were diluted in 10 mM NaOAc pH 4.0 and immobilized on an NHS/EDC activated HC200M sensorchip (XanTec bioanalytics GmbH) to a level of around 1000 resonance units (RU) (SMA555) or 1400 Rus (PSC466) using a ProteOn (BioRad). The surface was deactivated using Ethanolamine. The interaction of the tested proteins and human target hCD33 (SEQ ID NO:87) was then measured by injecting 400 μl running buffer (PBS, pH 7.4 containing 0.005% Tween 200) containing three-fold serial dilutions of human target hCD33 covering a concentration range between 66.7 nM and 0.82 nM, followed by a running buffer flow for 500 seconds at a constant flow rate of 100 μl/min (off-rate measurement). After each measurement, a 10 min pause was introduced to allow for complete dissociation of the analyte. Each interaction was recorded in triplicates. The signals (i.e. resonance unit (RU) values) of the interspots and a reference injection (i.e. injection of running buffer only) were subtracted from the RU traces obtained injecting human hCD33 (double-referencing). Dissociation constants (KD) were calculated from the globally fitted on- and off-rates using standard 1:1-Langmuir model.

Another experiment has as its target T4, human serum albumin (human, UniProt P02768 25-609).
T4 construct: also called HSA; SA
Briefly: SPR, set-up not described.

Experiment [4] deals with T5, human scCD3εγ (scCD3εγ_Avi-Bio) (human, biotin on the C-terminal Avi-tag (in vitro, BirA) where the biotinylated form was used).
T5 construct: Used for all SPR and HTRF results on human CD3; also called recombinant human CD3; human CD3
T5 chain: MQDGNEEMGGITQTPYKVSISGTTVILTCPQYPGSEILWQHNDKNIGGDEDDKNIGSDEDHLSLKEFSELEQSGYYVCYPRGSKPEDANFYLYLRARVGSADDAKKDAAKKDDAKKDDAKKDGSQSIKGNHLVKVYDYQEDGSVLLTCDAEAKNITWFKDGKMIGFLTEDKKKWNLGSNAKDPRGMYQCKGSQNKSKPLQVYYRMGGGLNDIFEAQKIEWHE
In words: SPR, set-up not described.

The target in experiment [5] is T6, biotinylated extracellular domain of human CD123 (SEQ ID NO: 88), Fc and Avi tagged (human, UniProt P26951 19-303, biotinylated with BirA-GST (Avi tag)).
T6 construct: also called hCD123
T6 sequence: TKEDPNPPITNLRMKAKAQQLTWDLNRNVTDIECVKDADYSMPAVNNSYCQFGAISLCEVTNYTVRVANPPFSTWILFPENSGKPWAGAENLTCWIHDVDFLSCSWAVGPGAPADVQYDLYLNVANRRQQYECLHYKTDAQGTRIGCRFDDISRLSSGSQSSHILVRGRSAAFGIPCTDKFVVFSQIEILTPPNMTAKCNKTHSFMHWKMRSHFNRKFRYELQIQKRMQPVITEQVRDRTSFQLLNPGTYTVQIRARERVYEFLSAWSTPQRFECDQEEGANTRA
Briefly: SPR (Bruker Sierra SPR-32 Pro), hCD123 on IgG capture chip. Here is the method: The binding affinities of selected multispecific ankyrin repeat proteins on recombinant targets were analyzed using ProteOn (BioRad) and Bruker Sierra SPR-32 Pro instruments. The measurements were performed according to standard procedures known to the person skilled in the art. For that, DARPin® protein #56 and DARPin® protein #57 of the invention were subcloned and expressed as described above into derivatives of the pQE30 (Qiagen) expression vectors, containing an N-terminal His-tag, two human serum album specific binding domains and CD70, CD123 and CD33 specific binding domains, followed by one CD3 specific binding domain.
Similarly, human target_hCD123 (SEQ ID NO: 88) was diluted in PBST (PBS, pH 7.4 containing 0.005% Tween 20®) and captured on a Bruker IgG Capture sensorchip to a level of around 177 resonance units (RU) using a Bruker Sierra SPR-32pro. The interaction of each tested ankyrin repeat protein and target_hCD123 was then measured by injecting 100 μl running buffer (PBS, pH 7.4 containing 0.005% Tween 200) containing three-fold serial dilutions of ankyrin repeat proteins covering a concentration range between 200 nM and 91 pM, followed by a running buffer flow for at least 1500 seconds at a constant flow rate of 25 μl/min (off-rate measurement). […] Each interaction was recorded in triplicates. […]

T1 sequence (P20138 18-364, one chain of several): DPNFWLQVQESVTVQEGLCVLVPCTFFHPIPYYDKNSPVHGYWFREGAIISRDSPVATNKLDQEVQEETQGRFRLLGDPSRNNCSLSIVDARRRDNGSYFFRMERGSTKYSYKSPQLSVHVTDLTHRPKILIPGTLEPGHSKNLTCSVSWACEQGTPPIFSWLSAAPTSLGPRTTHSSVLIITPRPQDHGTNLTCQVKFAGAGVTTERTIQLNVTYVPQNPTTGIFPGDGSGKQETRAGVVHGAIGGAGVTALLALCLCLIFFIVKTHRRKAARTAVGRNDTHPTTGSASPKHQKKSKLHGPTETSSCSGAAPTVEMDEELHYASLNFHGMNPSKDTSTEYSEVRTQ
T4 sequence (P02768 25-609 limits assumed): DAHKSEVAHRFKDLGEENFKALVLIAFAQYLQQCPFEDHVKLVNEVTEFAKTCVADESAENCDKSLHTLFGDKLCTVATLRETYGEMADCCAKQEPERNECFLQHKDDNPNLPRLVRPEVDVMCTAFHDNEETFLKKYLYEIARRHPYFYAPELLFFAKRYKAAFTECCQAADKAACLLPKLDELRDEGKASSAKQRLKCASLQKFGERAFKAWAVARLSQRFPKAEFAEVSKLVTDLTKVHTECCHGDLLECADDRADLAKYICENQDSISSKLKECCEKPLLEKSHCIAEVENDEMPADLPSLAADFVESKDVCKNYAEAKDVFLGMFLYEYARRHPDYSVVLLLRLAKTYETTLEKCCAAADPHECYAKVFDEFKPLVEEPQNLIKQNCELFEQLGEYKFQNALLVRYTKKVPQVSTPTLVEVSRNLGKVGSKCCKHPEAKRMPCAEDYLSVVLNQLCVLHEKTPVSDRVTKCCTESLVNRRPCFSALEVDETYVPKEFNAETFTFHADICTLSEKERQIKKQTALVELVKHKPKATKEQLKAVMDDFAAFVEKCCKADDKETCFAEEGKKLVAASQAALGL
T3 sequence (P20138 18-259 R69G): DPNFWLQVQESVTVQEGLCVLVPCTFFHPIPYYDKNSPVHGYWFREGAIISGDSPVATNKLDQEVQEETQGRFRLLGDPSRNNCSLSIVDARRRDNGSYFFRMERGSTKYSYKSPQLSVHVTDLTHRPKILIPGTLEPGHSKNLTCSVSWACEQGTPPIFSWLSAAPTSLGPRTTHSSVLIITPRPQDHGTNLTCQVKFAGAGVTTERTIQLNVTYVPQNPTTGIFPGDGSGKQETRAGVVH

B1: DARPin® protein #56 (designed binder)
chain: DLGKKLLEAARAGQDDEVRELLKAGADVNAKDYFSHTPLHLAARNGHLKIVEVLLKAGADVNAKDFAGKTPLHLAAADGHLEIVEVLLKAGADVNAQDIFGKTPADIAADAGHEDIAEVLQKAAGSPTPTPTTPTPTPTTPTPTPTGSDLGKKLLEAARAGQDDEVRELLKAGADVNAKDYFSHTPLHLAARNGHLKIVEVLLKAGADVNAKDFAGKTPLHLAAADGHLEIVEVLLKAGADVNAQDIFGKTPADIAADAGHEDIAEVLQKAAGSPTPTPTTPTPTPTTPTPTPTGSDLGVKLLLAAERGQLDEVRILLKAGADVNAKDIAEGYTPLHIAAYQGHLEIVEVLLKAGADVNAKDRYGKTPLHLAAIGGHLEIVEVLLKAGADVNAQDNKGSTPADLAADYGHQDIAEVLQKAAGSPTPTPTTPTPTPTTPTPTPTGSDLGKKLLEAALEGQLDEVRELLKAGADVNAKDQEGYTPLHLAAALGHLEIVEVLLKAGADVNAKDQIGRTPLHLAAYKGHLEIVEVLLKAGADVNAQDIIGQTPADLAAQRGHQDIAEVLQKAAGSPTPTPTTPTPTPTTPTPTPTGSDLGIKLLTAAYDGQLDEVRILLKAGADVNAKDLRGQTPLHYAAGLGHLEIVEVLLKAGADVNAKDLHGWTPLHLAAWSGHLEIVEVLLKAGADVNAQDVEGVTPADLAAVQGHQDIAEVLQKAAGSPTPTPTTPTPTPTTPTPTPTGSDLGQKLLEAAWAGQDDEVRELLKAGADVNAKNSRGWTPLHTAAQTGHLEIFEVLLKAGADVNAKNDKRVTPLHLAAALGHLEIVEVLLKAGADVNARDSWGTTPADLAAKYGHQDIAEVLQKAA
notes: HSA-HSA-CD33-CD123-CD70-CD3; not shown: N-terminal His-tag
In turn, B1 gave an EC50 in experiment [1] of 0.26 nM. Moreover, the Kd in experiment [2] stood at 0.61 nM; in experiment [3], 5.1 nM; with human serum albumin it was 120 nM; in experiment [4] it was 24 nM; in experiment [5], 0.056 nM.

B2: DARPin® protein #57 (designed binder)
chain: DLGKKLLEAARAGQDDEVRELLKAGADVNAKDYFSHTPLHLAARNGHLKIVEVLLKAGADVNAKDFAGKTPLHLAAADGHLEIVEVLLKAGADVNAQDIFGKTPADIAADAGHEDIAEVLQKAAGSPTPTPTTPTPTPTTPTPTPTGSDLGKKLLEAARAGQDDEVRELLKAGADVNAKDYFSHTPLHLAARNGHLKIVEVLLKAGADVNAKDFAGKTPLHLAAADGHLEIVEVLLKAGADVNAQDIFGKTPADIAADAGHEDIAEVLQKAAGSPTPTPTTPTPTPTTPTPTPTGSDLGIKLLTAAYDGQLDEVRILLKAGADVNAKDLRGQTPLHYAAGLGHLEIVEVLLKAGADVNAKDLHGWTPLHLAAWSGHLEIVEVLLKAGADVNAQDVEGVTPADLAAVQGHQDIAEVLQKAAGSPTPTPTTPTPTPTTPTPTPTGSDLGKKLLQAALEGQLDEVRELLKAGADVNAKDIEGYTPLHLAAALGHLEIVEVLLKAGADVNAKDQIGRTPLHLAAYKGHLEIVEVLLKAGADVNAQDIIGQTPADLAAQRGHQDIAEVLQKAAGSPTPTPTTPTPTPTTPTPTPTGSDLGKKLLLAAERGQLDEVRILLKAGADVNAKDRAEGYTPLHIAAYQGHLEIVEVLLKAGADVNAKDRYGKTPLHLAAISGHLEIVEVLLKAGADVNAQDNKGSTPADLAADYGHQDIAEVLQKAAGSPTGSDLGQKLLEAAWAGQDDEVRELLKAGADVNAKNSRGWTPLHTAAQTGHLEIFEVLLKAGADVNAKNDKRVTPLHLAAALGHLEIVEVLLKAGADVNARDSWGTTPADLAAKYGHQDIAEVLQKAA
notes: HSA-HSA-CD70-CD123-CD33-CD3; not shown: N-terminal His-tag
Turning to B2, a half-maximal effect in experiment [1] (EC50) was put at 0.13 nM. In addition, the Kd in experiment [2] is 0.82 nM; in experiment [3] it was 12 nM; with human serum albumin, 110 nM; in experiment [4] it was 29 nM; in experiment [5], 0.094 nM.
